Measured values from patent US20020150888A1 (published 2002).
Like-named read-outs stand apart in the source and are kept apart here.

B1: FLAG-tagged 88C receptor (receptor)
chain: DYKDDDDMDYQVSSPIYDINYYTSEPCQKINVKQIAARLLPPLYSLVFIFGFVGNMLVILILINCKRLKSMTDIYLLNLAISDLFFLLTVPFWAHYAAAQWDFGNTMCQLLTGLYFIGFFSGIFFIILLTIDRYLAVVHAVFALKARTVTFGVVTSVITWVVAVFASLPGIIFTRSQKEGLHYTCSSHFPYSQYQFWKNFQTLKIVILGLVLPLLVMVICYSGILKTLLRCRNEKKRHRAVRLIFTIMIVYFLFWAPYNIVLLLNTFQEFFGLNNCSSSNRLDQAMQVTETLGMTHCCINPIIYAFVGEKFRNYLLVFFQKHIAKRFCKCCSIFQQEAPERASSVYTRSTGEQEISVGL
B2: MIP-1β (ligand, UniProt P13236 24-92, looked up)
chain: APMGSDPPTACCFSYTARKLPRNFVVDYYETSSLCSQPAVVFQTKRSKQVCADPSESWVQEYVYDLELN
notes: also called MIP-1p
B3: RANTES (ligand, UniProt P13501 24-91, looked up)
chain: SPYSSDTTPCCFAYIARPLPRAHIKEYFYTSGKCSNPAVVFVTRKNRQVCANPEKKWVREYINSLEMS

What was measured:
[1] = molecular target: FLAG-tagged 88C receptor (human); experiment: cell-based or functional assay
[2] = molecular target: FLAG-tagged 88C receptor (human); experiment: competition of unlabelled ligand with 1.5 nM 125I-MIP-1β on HEK-293 cells transfected with FLAG-tagged 88C
MIP-1β = molecular target: B2; experiment: equilibrium binding of 125I-MIP-1β to HEK-293 cells transfected with FLAG-tagged 88C, Scatchard analysis
FLAG-tagged 88C receptor [3] = molecular target: B1; experiment: cell-based or functional assay
FLAG-tagged 88C receptor [4] = molecular target: B1; experiment: competition of unlabelled ligand with 1.5 nM 125I-MIP-1β on HEK-293 cells transfected with FLAG-tagged 88C

| Molecule | EC50 of inositol phosphate formation (phospholipase C assay, COS-7 cells co-transfected with Gqi5) [1] | IC50 [2] | Kd (MIP-1β) | EC50 of inositol phosphate formation (phospholipase C assay, COS-7 cells co-transfected with Gqi5) (FLAG-tagged 88C receptor [3]) | IC50 (FLAG-tagged 88C receptor [4]) |
| --- | --- | --- | --- | --- | --- |
| MIP-1α (from UniProt P10147 24-92) (ligand) | 22 nM | 7.4 nM | – | – | – |
| B1 | – | – | 1.6 nM | – | – |
| B2 | – | – | – | 6 nM | 7.4 nM |
| B3 | – | – | – | 1 nM | 6.9 nM |
